Reference: PMC9335916 (ACS Central Science, 2022)

Target: trypsin from porcine pancreas (porcine, UniProt P00761 9-231)
Test: native MS

Chain of trypsin from porcine pancreas (P00761 9-231): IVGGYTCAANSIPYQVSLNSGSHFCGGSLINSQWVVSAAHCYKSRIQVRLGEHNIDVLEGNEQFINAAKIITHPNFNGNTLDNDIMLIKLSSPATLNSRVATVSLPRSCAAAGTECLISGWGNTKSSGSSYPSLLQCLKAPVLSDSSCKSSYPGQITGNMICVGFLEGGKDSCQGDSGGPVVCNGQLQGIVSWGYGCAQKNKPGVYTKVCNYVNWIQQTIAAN

B1: Soybean trypsin inhibitor (natural protein)
chain: DFVLDNEGNPLENGGTYYILSDITAFGGIRAAPTGNERCPLTVVQSRNELDKGIGTIISSPYRIRFIAEGHPLSLKFDSFAVIMLCVGIPTEWSVVEDLPEGPAVKIGENKDAMDGWFRLERVSDDEFNNYKLVFCPQQAEDDKCGDIGISIDHDDGTRRLVVSKNKPLVVQFQKLDKESL
With B1 the “apparent Kd (without RF correction)” value was 27.1 ± 8.4 µM.
